T1: ARHGEF11, O15085
T1 sequence (O15085 42-136, limits assumed, looked up): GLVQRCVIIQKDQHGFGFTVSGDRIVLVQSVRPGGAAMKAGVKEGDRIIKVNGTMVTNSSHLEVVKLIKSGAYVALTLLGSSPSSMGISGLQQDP

T2: CARD11, Q9BXL7
T2 sequence (Q9BXL7 662-765, limits assumed, looked up): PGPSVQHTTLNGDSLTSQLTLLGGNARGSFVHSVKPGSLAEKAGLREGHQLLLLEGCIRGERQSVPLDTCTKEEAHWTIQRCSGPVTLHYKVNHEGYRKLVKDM

T3: DVL3, Q92997
T3 sequence (Q92997 244-331, limits assumed, looked up): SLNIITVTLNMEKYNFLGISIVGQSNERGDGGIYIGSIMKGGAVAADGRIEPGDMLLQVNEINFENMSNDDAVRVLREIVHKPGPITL

T4: FRMPD1, Q5SYB0
T4 sequence (Q5SYB0 52-145, limits assumed, looked up): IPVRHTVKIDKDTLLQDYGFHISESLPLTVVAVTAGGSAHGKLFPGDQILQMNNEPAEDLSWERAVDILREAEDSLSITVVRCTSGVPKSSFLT

T5: GRIP1_4, Q9Y3R0
T5 sequence (Q9Y3R0 467-571, limits assumed, looked up): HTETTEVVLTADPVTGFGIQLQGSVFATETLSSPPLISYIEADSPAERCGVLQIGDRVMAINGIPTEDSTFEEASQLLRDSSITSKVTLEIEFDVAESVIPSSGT

T6: HTRA4, P83105
T6 sequence (P83105 378-476, limits assumed, looked up): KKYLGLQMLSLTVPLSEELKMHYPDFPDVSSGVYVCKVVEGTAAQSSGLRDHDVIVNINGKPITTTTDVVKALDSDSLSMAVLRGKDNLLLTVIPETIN

T7: LNX2_2, Q8N448
T7 sequence (Q8N448 334-432, limits assumed, looked up): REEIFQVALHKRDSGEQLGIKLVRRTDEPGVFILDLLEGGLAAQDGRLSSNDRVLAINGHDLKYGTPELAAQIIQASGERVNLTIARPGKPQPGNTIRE

T8: LNX2_3, Q8N448
T8 sequence (Q8N448 463-564, limits assumed, looked up): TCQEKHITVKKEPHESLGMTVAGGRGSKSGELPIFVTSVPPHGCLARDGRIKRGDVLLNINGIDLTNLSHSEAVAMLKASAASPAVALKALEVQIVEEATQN

T9: PDZD2_2, O15018
T9 sequence (O15018 329-429, limits assumed, looked up): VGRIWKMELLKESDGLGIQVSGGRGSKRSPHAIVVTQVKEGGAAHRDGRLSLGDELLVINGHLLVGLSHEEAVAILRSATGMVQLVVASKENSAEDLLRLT

T10: PDZRN3_1, Q9UPQ7
T10 sequence (Q9UPQ7 244-349, limits assumed, looked up): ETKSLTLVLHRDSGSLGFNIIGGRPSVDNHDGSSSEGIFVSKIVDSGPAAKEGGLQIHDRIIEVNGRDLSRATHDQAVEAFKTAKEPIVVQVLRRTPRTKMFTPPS

T11: PTPN13_1, Q12923
T11 sequence (Q12923 1088-1188, limits assumed, looked up): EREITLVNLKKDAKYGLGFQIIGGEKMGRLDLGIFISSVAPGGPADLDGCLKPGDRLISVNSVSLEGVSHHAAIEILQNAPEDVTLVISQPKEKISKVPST

T12: RAPGEF6, Q8TEU7
T12 sequence (Q8TEU7 525-625, limits assumed, looked up): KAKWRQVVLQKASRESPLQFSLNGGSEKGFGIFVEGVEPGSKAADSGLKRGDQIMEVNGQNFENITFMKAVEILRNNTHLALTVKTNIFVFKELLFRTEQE

B1: SDC2, P34741 (peptide)
chain: QKAPTKEFYA
B2: PRKACA, P17612 (peptide)
chain: EKCGKEFSEF

The binders below were run against T1, ARHGEF11, O15085 (assay: holdup assay). Settings: plain residues with an end cap or a label only (N-terminal biotin on a linker: ado-ado).
Set-up: key: below the threshold = too weak to quantify, mostly under pKd 3.1 to 4

Question: Which pKd does the source give for B1 here?
Answer: below the threshold

Question: How did the pKd turn out when B2 was run?
Answer: below the threshold

The binders below were run against T2, CARD11, Q9BXL7 (assay: holdup assay). Settings: plain residues with an end cap or a label only (N-terminal biotin on a linker: ado-ado).
Set-up: key: below the threshold = too weak to quantify, mostly under pKd 3.1 to 4

Question: Which pKd does the source give for B1 here?
Answer: below the threshold

Question: For B2, which pKd is on record?
Answer: below the threshold

These binders were tested against DLG5_1, Q8TDM6 (assay: holdup assay). Settings: plain residues with an end cap or a label only (N-terminal biotin on a linker: ado-ado).
Chain of DLG5_1, Q8TDM6 (Q8TDM6 617-713): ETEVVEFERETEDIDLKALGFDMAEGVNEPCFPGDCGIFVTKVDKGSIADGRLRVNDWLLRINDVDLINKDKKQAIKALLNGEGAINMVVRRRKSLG
Set-up: key: below the threshold = too weak to quantify, mostly under pKd 3.1 to 4

Question: For B1, which pKd is on record?
Answer: below the threshold

Question: How did the pKd turn out when B2 was run?
Answer: below the threshold

The binders below were run against T3, DVL3, Q92997 (assay: holdup assay). Settings: plain residues with an end cap or a label only (N-terminal biotin on a linker: ado-ado).
Set-up: key: below the threshold = too weak to quantify, mostly under pKd 3.1 to 4

Question: Which pKd does the source give for B1 here?
Answer: below the threshold

Question: Which pKd does the source give for B2 here?
Answer: below the threshold

These binders were tested against T4, FRMPD1, Q5SYB0 (assay: holdup assay). Settings: plain residues with an end cap or a label only (N-terminal biotin on a linker: ado-ado).
Set-up: key: below the threshold = too weak to quantify, mostly under pKd 3.1 to 4

Question: B1 was tested. Which pKd did it give?
Answer: below the threshold

Question: How did the pKd turn out when B2 was run?
Answer: below the threshold

These binders were tested against GORASP1, Q9BQQ3 (assay: holdup assay). Settings: plain residues with an end cap or a label only (N-terminal biotin on a linker: ado-ado).
Chain of GORASP1, Q9BQQ3 (Q9BQQ3 1-208): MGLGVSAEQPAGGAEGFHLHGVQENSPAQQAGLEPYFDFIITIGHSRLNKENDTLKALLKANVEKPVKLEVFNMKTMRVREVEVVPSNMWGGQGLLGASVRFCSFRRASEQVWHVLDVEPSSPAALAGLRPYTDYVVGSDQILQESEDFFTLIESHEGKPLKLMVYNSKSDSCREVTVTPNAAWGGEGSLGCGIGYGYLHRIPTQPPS
Set-up: key: below the threshold = too weak to quantify, mostly under pKd 3.1 to 4

Question: Which pKd does the source give for B1 here?
Answer: 3.51

Question: B2 was tested. Which pKd did it give?
Answer: below the threshold

The binders below were run against GRID2IP_2, A4D2P6 (assay: holdup assay). Settings: plain residues with an end cap or a label only (N-terminal biotin on a linker: ado-ado).
Chain of GRID2IP_2, A4D2P6 (A4D2P6 272-370): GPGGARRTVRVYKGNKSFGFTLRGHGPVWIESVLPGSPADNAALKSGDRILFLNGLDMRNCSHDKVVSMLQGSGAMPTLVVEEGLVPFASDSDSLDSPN
Set-up: key: below the threshold = too weak to quantify, mostly under pKd 3.1 to 4

Question: B1 was tested. Which pKd did it give?
Answer: below the threshold

Question: B2 was tested. Which pKd did it give?
Answer: below the threshold

These binders were tested against T5, GRIP1_4, Q9Y3R0 (assay: holdup assay). Settings: plain residues with an end cap or a label only (N-terminal biotin on a linker: ado-ado).
Set-up: key: below the threshold = too weak to quantify, mostly under pKd 3.1 to 4

Question: With B1 as the binder, how does the pKd read?
Answer: below the threshold

Question: With B2 as the binder, how does the pKd read?
Answer: below the threshold

These binders were tested against GRIP2_3, Q9C0E4 (assay: holdup assay). Settings: plain residues with an end cap or a label only (N-terminal biotin on a linker: ado-ado).
Chain of GRIP2_3, Q9C0E4 (Q9C0E4 238-339): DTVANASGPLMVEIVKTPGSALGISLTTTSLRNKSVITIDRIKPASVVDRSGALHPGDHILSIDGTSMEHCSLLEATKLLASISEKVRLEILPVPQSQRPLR
Set-up: key: below the threshold = too weak to quantify, mostly under pKd 3.1 to 4

Question: How did the pKd turn out when B1 was run?
Answer: below the threshold

Question: Which pKd does the source give for B2 here?
Answer: below the threshold

What follows are binders tested against GRIP2_6, Q9C0E4 (assay: holdup assay). Settings: plain residues with an end cap or a label only (N-terminal biotin on a linker: ado-ado).
Chain of GRIP2_6, Q9C0E4 (Q9C0E4 648-740): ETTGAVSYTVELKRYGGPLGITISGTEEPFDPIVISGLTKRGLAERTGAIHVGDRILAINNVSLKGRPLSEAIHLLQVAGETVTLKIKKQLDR
Set-up: key: below the threshold = too weak to quantify, mostly under pKd 3.1 to 4

Question: How did the pKd turn out when B1 was run?
Answer: 4.1

Question: With B2 as the binder, how does the pKd read?
Answer: below the threshold

What follows are binders tested against T6, HTRA4, P83105 (assay: holdup assay). Settings: plain residues with an end cap or a label only (N-terminal biotin on a linker: ado-ado).
Set-up: key: below the threshold = too weak to quantify, mostly under pKd 3.1 to 4

Question: Which pKd does the source give for B1 here?
Answer: below the threshold

Question: How did the pKd turn out when B2 was run?
Answer: below the threshold

Each binder was assayed against Inadl_3, Q8NI35 (assay: holdup assay). Settings: plain residues with an end cap or a label only (N-terminal biotin on a linker: ado-ado).
Chain of Inadl_3, Q8NI35 (Q8NI35 359-469): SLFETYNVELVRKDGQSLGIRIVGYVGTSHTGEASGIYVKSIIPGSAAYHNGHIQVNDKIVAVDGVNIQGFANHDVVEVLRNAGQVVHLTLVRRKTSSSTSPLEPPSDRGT
Set-up: key: below the threshold = too weak to quantify, mostly under pKd 3.1 to 4

Question: With B1 as the binder, how does the pKd read?
Answer: below the threshold

Question: For B2, which pKd is on record?
Answer: below the threshold

What follows are binders tested against LIMK2, P53671 (assay: holdup assay). Settings: plain residues with an end cap or a label only (N-terminal biotin on a linker: ado-ado).
Chain of LIMK2, P53671 (P53671 143-248): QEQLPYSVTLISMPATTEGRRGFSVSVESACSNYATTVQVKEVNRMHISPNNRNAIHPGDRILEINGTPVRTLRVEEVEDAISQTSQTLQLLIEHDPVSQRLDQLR
Set-up: key: below the threshold = too weak to quantify, mostly under pKd 3.1 to 4

Question: B1 was tested. Which pKd did it give?
Answer: below the threshold

Question: Which pKd does the source give for B2 here?
Answer: below the threshold

Each binder was assayed against LNX1_3, Q8TBB1 (assay: holdup assay). Settings: plain residues with an end cap or a label only (N-terminal biotin on a linker: ado-ado).
Chain of LNX1_3, Q8TBB1 (Q8TBB1 500-596): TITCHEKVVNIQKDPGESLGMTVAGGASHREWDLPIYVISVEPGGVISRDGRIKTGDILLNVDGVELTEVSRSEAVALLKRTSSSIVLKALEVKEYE
Set-up: key: below the threshold = too weak to quantify, mostly under pKd 3.1 to 4

Question: With B1 as the binder, how does the pKd read?
Answer: below the threshold

Question: How did the pKd turn out when B2 was run?
Answer: below the threshold

These binders were tested against T7, LNX2_2, Q8N448 (assay: holdup assay). Settings: plain residues with an end cap or a label only (N-terminal biotin on a linker: ado-ado).
Set-up: key: below the threshold = too weak to quantify, mostly under pKd 3.1 to 4

Question: Which pKd does the source give for B1 here?
Answer: below the threshold

Question: For B2, which pKd is on record?
Answer: 3.49

These binders were tested against T8, LNX2_3, Q8N448 (assay: holdup assay). Settings: plain residues with an end cap or a label only (N-terminal biotin on a linker: ado-ado).
Set-up: key: below the threshold = too weak to quantify, mostly under pKd 3.1 to 4

Question: Which pKd does the source give for B1 here?
Answer: below the threshold

Question: With B2 as the binder, how does the pKd read?
Answer: below the threshold

These binders were tested against MAGI1_2, Q96QZ7 (assay: holdup assay). Settings: plain residues with an end cap or a label only (N-terminal biotin on a linker: ado-ado).
Chain of MAGI1_2, Q96QZ7 (Q96QZ7 456-580): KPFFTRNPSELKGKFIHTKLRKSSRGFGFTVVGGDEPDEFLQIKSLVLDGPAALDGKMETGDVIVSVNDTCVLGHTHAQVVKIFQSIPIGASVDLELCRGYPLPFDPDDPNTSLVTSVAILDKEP
Set-up: key: below the threshold = too weak to quantify, mostly under pKd 3.1 to 4

Question: B1 was tested. Which pKd did it give?
Answer: below the threshold

Question: With B2 as the binder, how does the pKd read?
Answer: below the threshold

What follows are binders tested against MAGI2_5, Q86UL8 (assay: holdup assay). Settings: plain residues with an end cap or a label only (N-terminal biotin on a linker: ado-ado).
Chain of MAGI2_5, Q86UL8 (Q86UL8 915-1017): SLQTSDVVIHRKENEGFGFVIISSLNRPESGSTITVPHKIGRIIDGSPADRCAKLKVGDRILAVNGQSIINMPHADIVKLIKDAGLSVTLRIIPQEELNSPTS
Set-up: key: below the threshold = too weak to quantify, mostly under pKd 3.1 to 4

Question: For B1, which pKd is on record?
Answer: below the threshold

Question: How did the pKd turn out when B2 was run?
Answer: 3.8

These binders were tested against NHERF4_2, Q86UT5 (assay: holdup assay). Settings: plain residues with an end cap or a label only (N-terminal biotin on a linker: ado-ado).
Chain of NHERF4_2, Q86UT5 (Q86UT5 220-308): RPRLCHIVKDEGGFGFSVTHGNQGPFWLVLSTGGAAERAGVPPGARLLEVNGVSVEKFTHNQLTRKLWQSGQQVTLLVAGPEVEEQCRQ
Set-up: key: below the threshold = too weak to quantify, mostly under pKd 3.1 to 4

Question: Which pKd does the source give for B1 here?
Answer: below the threshold

Question: How did the pKd turn out when B2 was run?
Answer: below the threshold

The binders below were run against NOS1, P29475 (assay: holdup assay). Settings: plain residues with an end cap or a label only (N-terminal biotin on a linker: ado-ado).
Chain of NOS1, P29475 (P29475 9-101): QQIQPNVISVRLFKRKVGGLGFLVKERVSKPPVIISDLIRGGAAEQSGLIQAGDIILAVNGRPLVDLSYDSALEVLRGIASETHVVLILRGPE
Set-up: key: below the threshold = too weak to quantify, mostly under pKd 3.1 to 4

Question: With B1 as the binder, how does the pKd read?
Answer: 3.83

Question: How did the pKd turn out when B2 was run?
Answer: below the threshold

These binders were tested against PARD3_3, Q8TEW0 (assay: holdup assay). Settings: plain residues with an end cap or a label only (N-terminal biotin on a linker: ado-ado).
Chain of PARD3_3, Q8TEW0 (Q8TEW0 582-685): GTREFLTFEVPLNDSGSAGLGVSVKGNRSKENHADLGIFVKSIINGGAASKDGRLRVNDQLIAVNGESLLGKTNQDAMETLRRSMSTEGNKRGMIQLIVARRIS
Set-up: key: below the threshold = too weak to quantify, mostly under pKd 3.1 to 4

Question: How did the pKd turn out when B1 was run?
Answer: below the threshold

Question: For B2, which pKd is on record?
Answer: below the threshold

These binders were tested against T9, PDZD2_2, O15018 (assay: holdup assay). Settings: plain residues with an end cap or a label only (N-terminal biotin on a linker: ado-ado).
Set-up: key: below the threshold = too weak to quantify, mostly under pKd 3.1 to 4

Question: How did the pKd turn out when B1 was run?
Answer: below the threshold

Question: With B2 as the binder, how does the pKd read?
Answer: 3.68

What follows are binders tested against T10, PDZRN3_1, Q9UPQ7 (assay: holdup assay). Settings: plain residues with an end cap or a label only (N-terminal biotin on a linker: ado-ado).
Set-up: key: below the threshold = too weak to quantify, mostly under pKd 3.1 to 4

Question: How did the pKd turn out when B1 was run?
Answer: below the threshold

Question: For B2, which pKd is on record?
Answer: below the threshold

These binders were tested against T11, PTPN13_1, Q12923 (assay: holdup assay). Settings: plain residues with an end cap or a label only (N-terminal biotin on a linker: ado-ado).
Set-up: key: below the threshold = too weak to quantify, mostly under pKd 3.1 to 4

Question: For B1, which pKd is on record?
Answer: below the threshold

Question: B2 was tested. Which pKd did it give?
Answer: below the threshold

What follows are binders tested against T12, RAPGEF6, Q8TEU7 (assay: holdup assay). Settings: plain residues with an end cap or a label only (N-terminal biotin on a linker: ado-ado).
Set-up: key: below the threshold = too weak to quantify, mostly under pKd 3.1 to 4

Question: How did the pKd turn out when B1 was run?
Answer: 3.54

Question: For B2, which pKd is on record?
Answer: below the threshold

The binders below were run against SNX27, Q96L92 (assay: holdup assay). Settings: plain residues with an end cap or a label only (N-terminal biotin on a linker: ado-ado).
Set-up: key: below the threshold = too weak to quantify, mostly under pKd 3.1 to 4

Question: For B1, which pKd is on record?
Answer: below the threshold

Question: With B2 as the binder, how does the pKd read?
Answer: below the threshold

From PMC9482650, “Quantitative fragmentomics allow affinity mapping of interactomes” (Nature Communications, 2022)
